These are literature values, as cited in publication PMC9180016.

The target of one series is p66Shc (Homo sapiens) (UniProt P29353).
Another series deals with cytochrome c (UniProt P99999).

pKd, pKi: −log10 of the molar value.

UniProt P99999, sequence (P99999 2-105): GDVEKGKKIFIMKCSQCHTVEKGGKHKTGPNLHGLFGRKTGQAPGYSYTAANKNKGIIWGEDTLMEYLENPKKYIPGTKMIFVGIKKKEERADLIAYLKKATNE

Turning to Mortalin (from UniProt P38646), in the series with p66Shc (Homo sapiens), the pKd is 6.07.

As for p66Shc (from UniProt P29353), the pKi in the series with cytochrome c is 5.84.

The term pKd denotes the Kd on a negative log10 scale, so that one unit is a factor of ten. For orientation: pKi means the Ki on a negative log10 scale, so that one unit is a factor of ten.
